Laboratory results reported in the nanobody polyreactivity screen of Harvey et al. (2022).

Assay: yeast display, Sf9 membrane polyspecificity reagent, FACS + sequencing; frameworks hold sequencing errors
Procedure, shortened: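 Sorting gates, low and high (top ~1%), were placed on anti-HA fluorescence to track expression and on streptavidin fluorescence to track reagent binding. A clone's polyreactivity label is taken from the gate it came out of. The reagent was 10% biotinylated, detergent-solubilized Sf9 membrane, applied for 1 hour at 4 °C to galactose-induced yeast display cells.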

Row | Sequence | polyreactivity (PSR sort gate)
1 | QVQLVESGGGLVQAGGSLRLSCAASGFTFTENVMGWYRQAPGKEREFVAAITYIGGRTYYADSVKGRFTISRDNAKNTVYFQMNSLKPEDTAVYYCAADWAYYVDSYLYYTFDYWGQGTQVTVSS | low polyreactivity
2 | QVQLVESGGGLVQAGGSLRLSCAASGFTFTEYAMGWYRQAPGKERELVADITWSGGITYYADSVKGRFTISRDNAKNTVYLQMNSLKPEDTAVYYCNADYIYSYFYIRYDYWGQGTQVTVSS | low polyreactivity
3 | QVQLVESGGGLVQAGGSLRLSCAASGFTFTFYALGWYRQAPGKERELVAAIRTSDGRTYYADSVKGRFTISRDNAKNTVYLQMNSLKPEDTAVYYCNARRYVGYDYWGQGSQVTVSS | high polyreactivity
4 | QVQLVESGGGLVQAGGSLRLSCAASGFTFTGYAMGWYRQAPGKERELVAVISSRGGSTYYADSVKGRFTISRDNAKNTVYLQMNSLKPEDTAVYYCAARGYKGFSSPFGYWGQGTQVTVSS | high polyreactivity
5 | QVQLVESGGGLVQAGGSLRLSCAASGFTFTKNTMGWYRQAPGKERELVAAITKSGGRTYYADSVKGRFTISRDNAKNTVYLQMNSLKPEDTAVYYCAADYVRNNYPYGYWGQGTQVTVSS | high polyreactivity
6 | QVQLVESGGGLVQAGGSLRLSCAASGFTFTPNAMGWYRQAPGKERELVAVITWNGGTTYYADSVKGRFTISRDNAKNTVYLQMNSLKPEDTAVYYCNADGLILYDYWGQGTQVTVSS | low polyreactivity
7 | QVQLVESGGGLVQAGGSLRLSCAASGFTFTPYAMGLYSQAPGKERELVAAITWRGGTYYADSVKGRFTISRDNAKKSVYLQMNSLKPEDTAVYYCAARVWRLYPSTYDYWGQGTQVTVSS | high polyreactivity
8 | QVQLVESGGGLVQAGGSLRLSCAASGFTFTQYGMGWYRQAPGKEREFVATIRFSGDNTYYADSVKGRFTISRDNAKNTVYLQMNSLKPEDTAVYYCNADNRAFFVYPVSKRYDSWGQGSQVTVSS | low polyreactivity
9 | QVQLVESGGGLVQAGGSLRLSCAASGFTFTRNAMGWYRQAPGKEMELVAGITFIGTSTYYADSVKGRFTISRDNAKNTVYLQMNSLKPEDTAVYYCAKEYDDYVYGYHYTRYGYWGQGTQVTVSS | low polyreactivity
10 | QVQLVESGGGLVQAGGSLRLSCAASGFTFTRNAMGWYRQAPGKERELVAAINFRSDRTFYADSVKGRFTISRDNAKNTVYLQMNSLKPEDTAVYYCAAQVGRGYEVYPVYKYGYWGQGTQVTVSS | high polyreactivity
11 | QVQLVESGGGLVQAGGSLRLSCAASGFTFTRNTMGWYRQAPGKERELVAAITRGGSTNYADSVKGRFTITRDNAKNTVYLQMNSLKPEDTAVYYCAADAPFDRPYNYWGQGTQVTVSS | low polyreactivity
12 | QVQLVESGGGLVQAGGSLRLSCAASGFTFTRYALGWYRQAPGKERELVAAISWSGGSTYYADSVKGRFTISRDNAKNTVYLQMNSLKPEDTAVYYCAKRGTVRQGGYGYWGQGTQVTVSS | high polyreactivity
13 | QVQLVESGGGLVQAGGSLRLSCAASGFTFTRYAMGWSRQAPGKERELVAAMSRGGTTYADSVKGRFTISRDNAKNTVYLQMNSLKPDDTAVYYCNRLRYCYPQEFGYWGLGTQVTVSS | high polyreactivity
14 | QVQLVESGGGLVQAGGSLRLSCAASGFTFTRYAMGWYIQAPGKERELVAAISRRSGGRTYYADSVKGRFTISRDNAKNTVYLQMNSLKPEDTAVYYCAADYSLRSGYEYWGQGTQVTVSS | high polyreactivity
15 | QVQLVESGGGLVQAGGSLRLSCAASGFTFTRYAMGWYRQAPGKERELVAAISRSGTSTYYADSVKGRFTISRDNAKNTVYLQMNSLKPEDTAVYYCAAYFGTTGRYALYDYWGQGTQVTVSS | high polyreactivity
16 | QVQLVESGGGLVQAGGSLRLSCAASGFTFTRYAMGWYRQAPGKERELVATITKRGGSTYYADSVKGRFTISRDNAKNTVYLQMNSLKPEDTAVYYCAADGASRALYDFWGQGTQVTVSS | high polyreactivity
17 | QVQLVESGGGLVQAGGSLRLSCAASGFTFTRYAMGWYRQAPGKERELVATITKRGGSTYYADSVKGRFTISRDNAKNTVYLQMNSLKPEDTAVYYCAADGASRALYDYWGQGTQVTLSS | high polyreactivity
18 | QVQLVESGGGLVQAGGSLRLSCAASGFTFTRYAMGWYRQAPGKERELVAVITSSGTSTYYADSVKGRFTISRDNAKNTVYLQMNSLKPEDTAVYYCAARTHRRDFYYWGQGTQVTVSS | high polyreactivity
19 | QVQLVESGGGLVQAGGSLRLSCAASGFTFTTYAMGWYRQAPRQVRELVAAITRRGGSTYYADSVKGRFTISRDNEKNTVYLQMNSLKPEDTAVYYCAAGGGWGLDFWGQGTQVTVSS | high polyreactivity
20 | QVQLVESGGGLVQAGGSLRLSCAASGFTFTTYVMGWSRQAPGKERELVAAISRRGTSTRYADSVKGRFTISRDNAKNTVYLQMNSLIPEDTAVYYCAADRPYSIVPYDYWGQGTQVTVSS | high polyreactivity
21 | QVQLVESGGGLVQAGGSLRLSCAASGFTFTVYAMGWYRQAPGKERELVAAIRWSGGSTSYADSVKGRFTISRDNAKNTVYLQMNSLKPEDTAVYYCNARISDAHYQSNYFLVLYDYWGKGTQVTVSS | low polyreactivity
22 | QVQLVESGGGLVQAGGSLRLSCAASGFTFTWNTMGWYRQAPGKERELVAAITKSAGSTYYADSVKGRFTISRDNAKNTVYLQMNSLKPEDTAVYYCAARRVSRGNSKFDYYWGQGTQVTVSS | high polyreactivity

Row | Sequence | polyreactivity (PSR sort gate)
23 | QVQLVESGGGLVQAGGSLRLSCAASGFTFTYNAMGWYRQEPGKERELVAAITANGGGTNYADSVKGRFTISRDNAKNTVYLQMNSLKPEDTAVYYCAATIVVAVFESLGFYWYTEENYWGQGTLVTVSS | low polyreactivity
24 | QVQLVESGGGLVQAGGSLRLSCAASGFTFTYYAMGWSRQAPGKERELVATISSGGSTYYADSVKGRFTISRDNAKYTVYLQMISLKPEDTAVYYCAVTTYSGLYGFDYWGQGTQVTVSS | low polyreactivity
25 | QVQLVESGGGLVQAGGSLRLSCAASGFTFTYYAMGWYRPAPGKERELVAAISTGGSTYYADSVKGRFTISRDNAKNTVYLQMNSLKPEDTAVYYCNAKPRYRKADRLDYWGQGTQVTVSS | high polyreactivity
26 | QVQLVESGGGLVQAGGSLRLSCAASGFTFTYYAMGWYRQAPAKERELVAAISSSGGRTYYADSVKGRFTISRDNAKNTVYLQMNSLKPEDTAVYYCAARSVSATPDFHYWGQGTQVTVSS | high polyreactivity
27 | QVQLVESGGGLVQAGGSLRLSCAASGFTFTYYAMGWYRQAPGKERELVAAISGNGGSTYYADSVKGRFTISRDNAKNTVYLQMNSLKPEDTAVYYCNALPKSVGRWYRGDYWGQGTQVTVSS | high polyreactivity
28 | QVQLVESGGGLVQAGGSLRLSCAASGFTFTYYAMGWYRQAPGKERELVAAISWSSDSTYYADSVKGRFTISRDNAKNTVYLQMNSLKPEDTAVYYWAARPGSKNVEYYYWGQGTQVTVSS | low polyreactivity
29 | QVQLVESGGGLVQAGGSLRLSCAASGFTFTYYAMGWYRQAPGKERELVASISRRGGDTYYADSVKGRFTISRDNAKNTVYLQMNSLKPEDTAVYYCATRRRQALDGGYYYWGQGTQVTVSS | high polyreactivity
30 | QVQLVESGGGLVQAGGSLRLSCAASGFTFTYYVMGWYRQAPGKVRELVAAITRGGITDYADSVKGRFTISRDNAKNTVDLQMNSLKPEETAVYYCAAYYSYVLDYDYWGQGTQVTVSS | low polyreactivity
31 | QVQLVESGGGLVQAGGSLRLSCAASGFTFVAYAMGWYRQAPGKERELVAAISRRGGPTYYADSVKGRFTISRDNAKYTVYLQMNSLKAEDTAVYYCAAGWKAFDQRRTGRLIRLLGQGTQVTVSS | high polyreactivity
32 | QVQLVESGGGLVQAGGSLRLSCAASGFTFVAYAMGWYRQAPGKERELVAAITWSGSRTYYADSVKGRFTISRDNAKNTVYLQMNSLKPEDTAVYYCAAGKTEGHYGYWGQGTQVTVSS | high polyreactivity
33 | QVQLVESGGGLVQAGGSLRLSCAASGFTFVAYAMGWYRQAPGKERELVAAITWSGSRTYYADSVKGRFTISRDNAKNTVYLQMNSLKPEDTAVYYCAARKTEGHYGYWGQGTQVTVSS | high polyreactivity
34 | QVQLVESGGGLVQAGGSLRLSCAASGFTFVGNAMGWYRQAPGKERELVATITSGGNTKYADSVKGRFTISRDNAKNTVYLQMNILKPEDTAVYYCAADSDSFWGVPSYYWGQGTQVTVSS | low polyreactivity
35 | QVQLVESGGGLVQAGGSLRLSCAASGFTFVGNTMGWYRQAPGKERELVAAIRGRDGRTYYADSVKGRFTISRDNEKNTVYLQMNSLKPEDTAVYYCNVDVKYSVRSEFDYWGQGTQVTVSS | low polyreactivity
36 | QVQLVESGGGLVQAGGSLRLSCAASGFTFVGYAMGWYRQAPGKESELVAAITSSGGSTYYADSVKGRFTISRDNAKNTVYLQMNSLKPEDTAVYYCAAPAPVLSTQKRFDSWGQGTQVTVSS | low polyreactivity
37 | QVQLVESGGGLVQAGGSLRLSCAASGFTFVGYVMGWYRQAPGKERELVAAISRRGRSTYYADSVKGRFTISRDNAKNTVYLQMNSLKPEDTAVYYCNKRWSSKSVQYDYWGQGTQVTVSS | high polyreactivity
38 | QVQLVESGGGLVQAGGSLRLSCAASGFTFVPHTMGWYRQAPGKERELVAGINYGVGSTYYADSVKGRFTISRDNAMNTVYLQMNSLKPEDTAVYYCAADIVYLYGLLYYWGQGTQVTVSS | low polyreactivity
39 | QVQLVESGGGLVQAGGSLRLSCAASGFTFVPYAMGWYRPAPGKERELLAAIDFDDATTYYADSVKGRFTISRDNAKNTVYLQMNSLKPEDTAVYYCAAVYYRRSYQGGYEYWGQGTQVTVSS | high polyreactivity
40 | QVQLVESGGGLVQAGGSLRLSCAASGFTFVPYTMGWYRQAPGKERELVPRINTSGGGTYYADSVKGRFTISRDNAKNTVYLQMNSLKPEDTAVYYCAARRNYRAQPKTRWTGYYYWGQGTQVTVSS | high polyreactivity
41 | QVQLVESGGGLVQAGGSLRLSCAASGFTFVRYAMGWYRQAPGKERELVAAISRRGGSTYYADSVKGRFTISRDNAKNTVYLQMNSLKPEDTAVYYCNALPRPSYPFDYWGQGTQVTVSS | high polyreactivity
42 | QVQLVESGGGLVQAGGSLRLSCAASGFTFVRYAMGWYRQAPGKERELVAVISRSGGSTNYADSVKGRFTISRDNAKNTVYLQMNSLKPEDTAVYYCAASLQYRRLVKGGDYWGQGTQVTVSW | high polyreactivity
43 | QVQLVESGGGLVQAGGSLRLSCAASGFTFVRYTMGWYRQAPGKERELVAVIRRGGSTYYADSVKGRFTISRDNAKNTVYLPMKSLKPEDTAVYYCNALSALAVEDGYWGQGTQVTVSS | low polyreactivity
